These results are taken from doi:10.1101/2025.06.23.660979.

In experiment [1] the target is BcLmuA K59A, nuclease-dead BcLmuA of the BcLmuA(K59A)B complex (Bacillus cellulasensis NIO-1130). The experiment can be described thus: cryo-EM structure.
The target in experiment [2] is VcLmuA, LmuA of the type II Lamassu system from Vibrio cholerae O1 El (Vibrio cholerae O1 El). The experiment can be described thus: cryo-EM structure.
The target is the same in experiment [3]. Kind of experiment: SEC-MALS. In general terms: In gel filtration, larger molecules generally elute earlier.

On to “BcLmuA K59A, nuclease-dead BcLmuA of the BcLmuA(K59A)B complex (natural protein)”, for which the stoichiometry N – broadly, the number of molecules, sites or subunits per partner or assembly – in experiment [1] turned out to be 4.
“VcLmuA, LmuA of the type II Lamassu system from Vibrio cholerae O1 El (natural protein)” yielded a stoichiometry N in experiment [2] of 4.
For “VcLmuC, LmuC of the type II Lamassu system from Vibrio cholerae O1 El (natural protein)”, the stoichiometry N (LmuC per LmuA) in experiment [3] worked out at 1. The same substance registered a stoichiometry N (VcLmuC per VcLmuA) in experiment [2] of 1.
